Results as given in patent publication US20060264369, “Aptamers to von Willebrand Factor and their use as thrombotic disease therapeutics” (published 2006).
Numbering of substitutions follows the chain as printed.

Legend:
[1] = molecular target: T1, von Willebrand factor A1 domain (Homo sapiens, UniProt P04275 SEQ:13-246); assay: filter; no binding; conditions: label: 5'-32P
[2] = molecular target: T2, von Willebrand factor full length (Homo sapiens, UniProt P04275 SEQ:764-2813); assay: filter; DPBS, 0.1 mg/mL BSA, RT; conditions: tags: Calbiochem 681300; label: 5'-32P
Experimental: (§1) KD values were calculated by fitting the equation y=(max/(1+K/protein))+yint using KaleidaGraph (KaleidaGraph v. 3.51, Synergy Software).

[3] = molecular target: T1, von Willebrand factor A1 domain; assay: filter; DPBS, 0.1 mg/mL BSA, RT; conditions: label: 5'-32P
Experimental: as §1

[4] = molecular target: T2, von Willebrand factor full length; assay: filter; 26% bound at 100 nM vWF; conditions: tags: Calbiochem 681300; label: 5'-32P
Experimental: (§2) For KD determination, chemically synthesized aptamers were purified using denaturing polyacrylamide gel electrophoresis, 5′end labeled with γ-³²P ATP and were tested for direct binding to full length human vWF (Calbiochem Cat.# 681300, La Jolla, Calif.). An 8 point protein titration was used in the dot blot binding assay (100 nM, 30 nM, 10 nM, 3 nM, 1 nM, 300 pM, 100 pM, 0 pM)) in 1× Dulbecco's PBS containing […] (final volume of 50 uL) for 30 minutes at room temperature. KD values were calculated by fitting the equation y=(max/(1+K/protein))+yint using KaleidaGraph (KaleidaGraph v. 3.51, Synergy Software).

[5] = molecular target: T2, von Willebrand factor full length; assay: filter; no binding; conditions: tags: Calbiochem 681300; label: 5'-32P
Experimental: as §2

[6] = molecular target: T2, von Willebrand factor full length; assay: cell_activity; IC90 BIPA in human platelet rich plasma
Experimental: In order to determine the activity of aptamers on live human platelets, BIPA assays were done using freshly prepared platelet rich plasma. Blood was obtained from healthy human donors who had not taken NSAIDS for at least five days. […] Collected blood was pooled into 15 mL conical tubes and was spun at 200 g for 20 minutes. The turbid, yellow layer of platelet rich plasma (“PRP”) was withdrawn from the tubes, pooled, and set aside at room temperature. The remaining blood was spun at 2500 g for ten minutes. The clarified layer of plasma, known as platelet poor plasma (“PPP”), was withdrawn and set aside at room temperature. PRP was aliquoted into cuvettes containing stir bars at a volume of 470 uL. A sample of 500 uL of PPP was aliquoted into a cuvette and placed in the PPP reference cell of the platelet aggregometer. Samples of PRP were prewamed at 37 degrees C. in the platelet aggregometer for 3-5 minutes before being used in BIPA assays. First, the concentration of botrocetin needed to induce platelet aggregation for each individual donor was determined by titration. This concentration of botrocetin was used for the remainder of the experiment. Next, aptamer was assayed by adding titrations of aptamer (zero, 1 nM to 1000 nM) to prewarmed PRP for one minute, followed by addition of botrocetin. With platelet aggregation, an increase in amplitude of light transmission is seen (FIG. 8). The concentration at which platelet aggregation is blocked at 90% or greater after 6 minutes is reported in the final column of Table 26.

[7] = molecular target: T2, von Willebrand factor full length; assay: filter; 25% bound at 100 nM vWF; conditions: tags: Calbiochem 681300; label: 5'-32P
Experimental: as §2

[8] = molecular target: T2, von Willebrand factor full length; assay: filter; 21% bound at 100 nM vWF; conditions: tags: Calbiochem 681300; label: 5'-32P
Experimental: as §2

[9] = molecular target: T2, von Willebrand factor full length; assay: filter; 49% bound at 100 nM; conditions: tags: Calbiochem 681300
Experimental: as §2

[10] = molecular target: T2, von Willebrand factor full length; assay: filter; 50% bound at 100 nM; conditions: tags: Calbiochem 681300
Experimental: as §2

[11] = molecular target: T2, von Willebrand factor full length; assay: filter; 46% bound at 100 nM; conditions: tags: Calbiochem 681300
Experimental: as §2

[12] = molecular target: T2, von Willebrand factor full length; assay: filter; 43% bound at 100 nM; conditions: tags: Calbiochem 681300
Experimental: as §2

[13] = molecular target: T2, von Willebrand factor full length; assay: filter; 40% bound at 100 nM; conditions: tags: Calbiochem 681300
Experimental: as §2

[14] = molecular target: T2, von Willebrand factor full length; assay: filter; 39% bound at 100 nM; conditions: tags: Calbiochem 681300
Experimental: as §2

[15] = molecular target: T2, von Willebrand factor full length; assay: filter; DPBS, 0.1 mg/mL BSA, RT; conditions: tags: Calbiochem 681300; label: 5'-32P; remark: listed apart in the source
Experimental: Based on this initial screen, KDs were determined for 3 of the vWF dependent binding sequences using the dot blot assay. […] A 12 point protein titration was used in the dot blot assay (300 nM, 100 nM, 30 nM, 10 nM, 3 nM, 1 nM, 300 pM, 100 pM, 30 pM, 10 pM, 3 pM, 0 pM) in 1× DPBS plus 0.1 mg/mL BSA at room temperature for 30 minutes. KD values were calculated by fitting the equation y=(max/(1+K/protein))+yint using KaleidaGraph (KaleidaGraph v. 3.51, Synergy Software).

CGATCTGACTAGCGGAATGAGAATGCTGGTGGATCG (ssDNA) [DNA1 minimer SEQ 206]: no binding [1].

Work on GGCCACACGACATTGGCGGGCGAGAGCCACGCATGGCC (mixed, 2'-OH purines, deoxy pyrimidines) [rRdY minimer SEQ 198] yielded a Kd [2] of 3 nM and a Kd [3] of 5 nM.

In the case of CCGGCCGTGCGGTGCCUCCGUCACGUUCCGUGCAGUGCCGG (mixed, 2'-OMe/deoxy composite, single PS, 3'-idT) [ARC1546], the Kd [4] is reported as 24 nM.

GCGUGCAGUGCUUCGCCGTGCGGTGCCUCCGUCACGC (mixed, 2'-OMe/deoxy composite, 3'-idT) [ARC1348]: no binding [5].

For GGAGCCACACGACATTGGCGGGCGAGAGCCACGCATGGCTCC (mixed, 2'-OH purines, deoxy pyrimidines) [rRdY minimer SEQ 192], the Kd [2] was 2 nM and the Kd [3] was 4 nM.

B1: ARC1779 (mixed)
mixed: GCGUGCAGUGCCUUCGGCCGTGCGGTGCCUCCGUCACGC
modifications: 2'-OMe at 1-4,8-18,20,22,27,28,30,33,34,36-39, rest deoxy; PS between 20 and 21; 5'-PEG20K-hexylamine; 3'-idT
B1 showed an activity [6] of ~100 nM.

B2: ARC1780 (mixed)
mixed: B1 mixed
modifications: 2'-OMe at 1-4,8-18,20,22,27,28,30,33,34,36-39, rest deoxy; PS between 20 and 21; 5'-PEG40K-hexylamine; 3'-idT [2'-OMe at 1-4,8-18,20,22,27,28,30,33,34,36-39, rest deoxy; PS between 20 and 21 (printed S left out); 5'-PEG40K-hexylamine (left out); 3'-idT at 40]
For B2, the activity [6] was ~100 nM.

Binder GGAGCCACGGGGTGGGTAGACGGCGGGTATGTGGCTCC (mixed, 2'-OH purines, deoxy pyrimidines) [rRdY minimer SEQ 180] has a Kd [2] of 1 nM and a Kd [3] of 11 nM.

With GGCGTGCAGTGCCTTCGGCCGTGCGGTGCCTCCGTCACGCC (ssDNA, 2'-OMe C7, 3'-idT) [ARC1200] the Kd [7] was 5 nM.

For GGCGUGCAGTGCCTTCGGCCGTGCGGTGCCTCCGTCACGCC (mixed, 2'-OMe at 1-5 and 37-41, 3'-idT) [ARC1338], the Kd [8] was 7.4 nM.

Binder GGCGTGCAGTGCCTTCGGCCGTGCGGTGCCTCCGTCACGCC (ssDNA, 2'-OMe at 19; 3'-idT) [ARC1212] has a Kd [9] of 2 nM.

With GGCGTGCAGTGCCTTCGGCCGTGCGGTGCCTCCGTCACGCC (ssDNA, 2'-OMe at 38; 3'-idT) [ARC1231] the Kd [10] was 1 nM.

GGCGTGCAGTGCCTTCGGCCGTGCGGTGCCTCCGTCACGCC (ssDNA, 2'-OMe at 4; 3'-idT) [ARC1197] showed a Kd [11] of 2 nM.

GGCGTGCAGTGCCTTCGGCCGTGCGGTGCCTCCGUCACGCC (ssDNA, 2'-OMe at 35 (mU); 3'-idT) [ARC1228] gave a Kd [12] of 2 nM.

With GGCGUGCAGUGCCUUCGGCCGTGCGGTGCCTCCGTCACGCC (mixed, 2'-OMe at 1-5, 9-19, 37-41, 3'-idT) [ARC1341] the Kd [4] was 22.5 nM.

GGCGTGCAGTGCCTTCGGCCGTGCGGTGCCTCCGTCACGCC (ssDNA, 2'-OMe at 17; 3'-idT) [ARC1210] was tested, and the Kd [9] was 2 nM.

GGCGTGCAGUGCCTTCGGCCGTGCGGTGCCTCCGTCACGCC (ssDNA, 2'-OMe at 10 (mU); 3'-idT) [ARC1203] was tested, and the Kd [13] was 3 nM.

GGCGTGCAGTGCCTTCGGCCGTGCGGTGCCTCCGTCACGCC (ssDNA, 2'-OMe at 21; 3'-idT) [ARC1214] gave a Kd [14] of 3 nM.

Binder GGCGTGCAGTGCCTTCGGCCGTGCGGTGCCTCCGTCACGCC (ssDNA, 2'-OMe C30, 3'-idT) [ARC1223] has a Kd [4] of 36 nM.

Work on GGCGTGCAGTGCCTTCGGCCGTGCGGTGCCTCCGTCACGCC (ssDNA, 2'-OMe at 11,17,18; 3'-idT) [ARC1238] yielded a Kd [12] of 2 nM.

For GGCGTGCAGTGCCTTCGGCCGTGCGGTGCCTCCGTCACGCC (ssDNA, 2'-OMe at 3; 3'-idT) [ARC1196], the Kd [11] was 2 nM.

GGCGTGCAGTGCCTTCGGCCGTGCGGTGCCTCCGTCACGCC (ssDNA, 2'-OMe at 12; 3'-idT) [ARC1205] gave a Kd [10] of 1 nM.

GGCGTGCAGTGCCTTCGGCCGTGCGGTGCCTCCGTCACGCC (ssDNA, 2'-OMe at 1; 3'-idT) [ARC1194] gave a Kd [11] of 3 nM.

Work on GGCGTGCAGTGCCTTCGGCCGTGCGGTGCCTCCGTCACGCC (ssDNA, 2'-OMe at 20; 3'-idT) [ARC1213] yielded a Kd [12] of 6 nM.

Work on GGCGTGCAGTGCCTTCGGCCGTGCGGTGCCTCCGTCACGCC (ssDNA, 2'-OMe at 13; 3'-idT) [ARC1206] yielded a Kd [10] of 2 nM.

For GGCGTGCAGTGCCTTCGGCCGTGCGGTGCCTCCGTCACGCC (ssDNA, 2'-OMe C33, 3'-idT) [ARC1226], the Kd [7] was 12 nM.

Binder GGCGTGCAGTGCCTTCGGCCGTGCGGTGCCTCCGTCACGCC (ssDNA, 2'-OMe at 37; 3'-idT) [ARC1230] has a Kd [11] of 3 nM.

GGCGTGCAGTGCCTTCGGCCGTGCGGTGCCTCCGTCACGCC (ssDNA, 2'-OMe at 40; 3'-idT) [ARC1233] gave a Kd [14] of 2 nM.

With GGCGTGCAGTGCCTTCGGCCGTGCGGTGCCTCCGTCACGCC (ssDNA, 2'-OMe at 28; 3'-idT) [ARC1221] the Kd [12] was 1 nM.

With GGCGTGCAGTGCCTTCGGCCGTGCGGTGCCTCCGTCACGCC (ssDNA, 2'-OMe at 11,12,13,17,18,19; 3'-idT) [ARC1240] the Kd [13] was 4 nM.

Binder GGCGTGCAGTGCCTTCGGCCGTGCGGTGCCTCCGTCACGCC (ssDNA, 5'-PEG20K-hexylamine; 3'-idT) [ARC1885] has an activity [6] of ~50 nM.

B3: AMX237.G6 (ssDNA)
DNA: CTACCTACGATCTGACTAGCGTGCAGTGCCTATTCCAGGCCGTGCGGTGCCTCCGTCACGCTTACTCTCATGTAGTTCC
In the case of B3, the Kd [15] is reported as 0.2 nM.

B4: AMX238.E9 (ssDNA)
DNA: B3 DNA with T31C, T34C, C35T, C36T
B4 showed a Kd [15] of 0.39 nM.

B5: AMX238.H5 (ssDNA)
DNA: B3 DNA with C36T
B5 was tested, and the Kd [15] was 0.33 nM.

In the case of GGCGUGCAGUGCCUUCGGCCGTGCGGTGCCUCCGUCACGCC (mixed, 2'-OMe/deoxy composite with 4 PS as printed in Table 22, 3'-idT) [ARC1343], the Kd [8] is reported as 23.9 nM.

CCAGCGGAATGAGAATGCTGATGGATTGCTCAGGTCTGCTGG (ssDNA) [DNA1 minimer SEQ 204]: no binding [1].

GGCGUGCAGUGCUUCGCCGTGCGGTGCCUCCGUCACGCC (mixed, 2'-OMe/deoxy composite, 3'-idT) [ARC1347]: no binding [5].
